From publication PMC2633459 (Molecular Vision, 2009)
“And” between values parts separate entries of the source, which are not always exact repeats. Equal values may be shown once.

B1: wild type human βB1-crystallin (natural protein, UniProt P53674 1-252, looked up)
chain: MSQAAKASASATVAVNPGPDTKGKGAPPAGTSPSPGTTLAPTTVPITSAKAAELPPGNYRLVVFELENFQGRRAEFSGECSNLADRGFDRVRSIIVSAGPWVAFEQSNFRGEMFILEKGEYPRWNTWSSSYRSDRLMSFRPIKMDAQEHKISLFEGANFKGNTIEIQGDDAPSLWVYGFSDRVGSVKVSSGTWVGYQYPGYRGYQYLLEPGDFRHWNEWGAFQPQMQSLRRLRDKQWHLEGSFPVLATEPPK
notes: human βB1-crystallin, wild type, recombinant; Mixture of monomers and dimers at the concentrations of the 1:1 experiments; dimer at the higher concentration of the 5:1 experiment; source: E. coli, purified (successive ion-exchange chromatography)
B2: wild type human βA3-crystallin (natural protein, UniProt P05813 1-215, looked up)
chain: METQAEQQELETLPTTKMAQTNPTPGSLGPWKITIYDQENFQGKRMEFTSSCPNVSERSFDNVRSLKVESGAWIGYEHTSFCGQQFILERGEYPRWDAWSGSNAYHIERLMSFRPICSANHKESKMTIFEKENFIGRQWEISDDYPSLQAMGWFNNEVGSMKIQSGAWVCYQYPGYRGYQYILECDHHGGDYKHWREWGSHAQTSQIQSIRRIQQ
notes: human βA3-crystallin, wild type, recombinant; no tag is mentioned; also called WT βA3; βA3 WT; source: E. coli, purified (successive ion-exchange chromatography)
B3: wild type human βB2-crystallin (natural protein, UniProt P43320 1-205, looked up)
chain: MASDHQTQAGKPQSLNPKIIIFEQENFQGHSHELNGPCPNLKETGVEKAGSVLVQAGPWVGYEQANCKGEQFVFEKGEYPRWDSWTSSRRTDSLSSLRPIKVDSQEHKIILYENPNFTGKKMEIIDDDVPSFHAHGYQEKVSSVRVQSGTWVGYQYPGYRGLQYLLEKGDYKDSSDFGAPHPQVQSVRRIRDMQWHQRGAFHPSN
notes: human βB2-crystallin, wild type, recombinant; source: E. coli, purified (successive ion-exchange chromatography)
B4: doubly deamidated mutant βA3 Q85E/Q180E (natural protein, human, UniProt P05813 1-215, looked up)
chain: METQAEQQELETLPTTKMAQTNPTPGSLGPWKITIYDQENFQGKRMEFTSSCPNVSERSFDNVRSLKVESGAWIGYEHTSFCGQEFILERGEYPRWDAWSGSNAYHIERLMSFRPICSANHKESKMTIFEKENFIGRQWEISDDYPSLQAMGWFNNEVGSMKIQSGAWVCYQYPGYRGYEYILECDHHGGDYKHWREWGSHAQTSQIQSIRRIQQ
notes: human βA3-crystallin with Q85E and Q180E (mimic of deamidation), recombinant; Homo-dimer by SEC-MALS at 37 °C; precipitates at 55 °C when alone; also called DM βA3; βA3 DM; source: E. coli, purified (successive ion-exchange chromatography)

Assays:
[1] = biological target: the molecule itself; assay: SEC-MALS; each crystallin alone, incubated 90 min at 37 °C; Superose 12 10/300 GL; pH 6.8, 29 mM Na2HPO4, 29 mM NaH2PO4, 100 mM KCl, 1 mM EDTA, 1 mM DTT
[2] = biological target: the molecule itself; assay: SEC-MALS; 5:1 molar ratio of βB1 to βA3 (to favour the βB1 dimer), injected immediately (0 min) or after 30 min at 37 °C; same buffer
[3] = biological target: B1; assay: SEC-MALS; 1:1 molar ratio of βA3 (WT or DM) with βB1 or βB2, final 0.4–0.5 mg/ml, incubated 90 min at 55 °C; filtered before injection; same buffer; conditions: both partners purified
[4] = biological target: B4; assay: native gel or EMSA; blue-native PAGE, 4%–12% Bis-Tris gel, pH 7.0, 200 V, 4 °C; mixtures incubated at 37 °C for 60 min before the gel; conditions: both partners purified

Binder	stoichiometry N [1]	stoichiometry N [2]	binding result [3]	binding result [4]
B1	2	–	–	–
B2	–	2	binds	–
B3	2 and 4	–	–	binds
B4	2	–	–	–
